US6339070B1, “Gene construct encoding a heterologous prodrug-activating enzyme and a cell targeting moiety” (Zeneca Limited, priority 1997, dated 2002)
Entries after “also recorded” stand apart in the source; their conditions may differ.

Assays:
[1] = test system: CEA negative cell lines; experiment: Cell based ELISA of secreted fusion protein, CEA negative cells; conditions: increasing amounts of added fusion protein; listed as (A5B7-CPG2)2 fusion protein
Method: Cells were seeded into 96 well plates (Becton Dickinson Biocoat™ poly-D-Lysine, 35-6461) at a density of 1×10^4 cells per well in 100 μl normal culture media and left about 40 h at 37°. 100 μl of 6% formaldehyde was diluted in DMEM and left for 1 hour at 4°. Plates were centrifuged and washed 3 times in PBS containing 0.05% Tween™ by immersion soaking (first two washes for 2 minutes and the final wash for 5 minutes).
100 μl of doubling dilutions of cell culture supernatant containing fusion protein or chimeric A5B7 anti-CEA were added to each well as appropriate and the plates incubated overnight at 4°. The plates were washed as described above and, in the case of chimaeric fusion proteins. 100 μl of 1:1000 dilution of HRP labelled anti-human kappa antibody (Sigma A-7164) was added and incubated for 2 hours at room temperature (an anti-CPG2 detection methodology can be used in the case of murine scFv fusion proteins). The plates were washed as described above and HRP detected using OPD substrate (Sigma P-8412). Colour was allowed to develop for about 5 min, stopped with 75 μl per well of 2M H2SO4 and OD read at 490 nm.
In the case of the (A5B7-CPG2)2 fusion protein, material was produced in the supernatant from recombinant Colo32ODM tumour cells (CEA-ve). The fusion protein content was measured by use of the CEA ELISAs described above. […]

[2] = test system: recombinant LoVo tumour cells; experiment: Retention of secreted fusion protein on recombinant LoVo cells (cell based ELISA); conditions: CEA positive, without added anti-CEA antibody, listed as (A5B7-CPG2)2 fusion protein
Method: (§1) The vertical axis represents optical density readings measured at 490 nm and the horizontal axis the amount of added anti-CEA antibody (IIE6) measured in ng/ml of protein. […] Firstly, the cell lines were fixed and washed to remove the existing supernatant and any unbound material after which increasing concentrations of the anti-CEA antibody (IIE6) were added to the fixed cells. The assay was developed as described in the text to determine the level of retention of any secreted material and whether further added antibody would increase the signal. […] Since the recombinant Colo320DM are CEA negative no increase in signal due to anti-CEA antibody the results for these cells would be expected. In the case of the recombinant LoVo cells the addition signal due the amounts of antibody added in this assay may be swamped except at the highest dose due to the relative strength of the original signal.
(§2) LoVo colorectal tumour cells transfected with the (A5B7-CPG2)2 fusion protein gene have been shown both to secrete and to retain the fusion protein on their cell surface. […] The recombinant LoVo cells still gave such a strong initial signal that the added antibody made little difference to the overall signal obtained, which was considerably higher than any of the control experiments.

[3] = test system: recombinant Colo320DM (CEA negative); experiment: Retention of secreted fusion protein on recombinant Colo320DM cells (cell based ELISA); conditions: listed as (A5B7-CPG2)2 fusion protein
Method: as §1, §2

[4] = Enzyme activity in tumour xenograft samples (methotrexate turnover, HPLC); assay type: in vivo, athymic nude mice; conditions: 20% recombinant: 80% parental LoVo tumours
Method: Recombinant LoVo fusion protein (A5B7-CPG2)2 expressing tumour cells or mixes of recombinant and parental LoVo cells were injected subcutaneously into athymic nude mice (10^7 tumour cells per mouse). The tumour growth rates for both 100% recombinant and 20%: 80% mixes of recombinant:parental LoVo cells were compared to those of parental cell only tumours.
To act as a standard for the assay, a CPG2 enzyme standard curve was prepared in 20% homogenate of normal tumour (parental cell tumour). Subsequent dilutions of samples were made in the same 20% homogenate of normal tumour.
Excised tumour tissue is removed from −80° storage (previously flash frozen in liquid nitrogen) and allowed to thaw. Any residual skin tissue was removed before the tumour was cut up in to small fragments with a scalpel. The tumour tissue was transferred to a preweighed tube and the weight of tumour tissue measured. PBS containing 0.2 mM ZnCl2 solution was added to each tumour sample to give a 20% (w/v) mix, homogenised and placed on ice. Dilutions of sample tumours (in 20% normal tumour homogenate) were prepared e.g. neat, 1/10, 1/20 and 1/40.
For the standard curve, dilutions of CPG2 enzyme were made to the following concentrations to a final volume of 400 μl. Similarly, 400 μl of each of the recombinant tumour sample dilutions were also prepared. After equilibration to 30°, 4 μl of 10 mM methotrexate (MTX) solution was added. The reaction was stopped after exactly 10 minutes by adding 600 μl ice cold methanol+0.2% TFA, centrifuged and the supematant collected. The substrate and product in the supernatant were then separated by HPLC (using a Cation Exchange Column, HICROM™ S5SCX-100 A, mobile phase=60% methanol, 40% 60 mM ammonium formate/0.1% TFA, detection 300 nm). To calculate enzyme activity in the tumour tissue, the standard curve was plotted as units of area of methotrexate metabolite (the standards are such that only 20-30% of the substrate is metabolised so ensuring this is not rate limiting). The test samples were analysed by comparing the unit area of metabolite against the standard curve and then multiplying by the dilution factor. Finally, making the working assumption that 1 ml=1 g the results were multiplied by 5 (as the samples were originally diluted to a 20% homogenate).

[5] = test system: CPG2; conditions: COS-7 transient expression supernatant

B1: (A5B7 Fab-CPG2)2 fusion protein: chimaeric A5B7 anti-CEA Fab, heavy chain Fd linked via (G4S)3 linker to CPG2 R6, dimerised through CPG2 (antibody)
heavy: EVKLVESGGGLVQPGGSLRLSCATSGFTFTDYYMNWVRQPPGKALEWLGFIGNKANGYTTEYSASVKGRFTISRDKSQSILYLQMNTLRAEDSATYYCTRDRGLRFYFDYWGQGTTLTVSSASTKGPSVFPLAPCSRSTSESTAALGCLVKDYFPEPVTVSWNSGALTSGVHTFPAVLQSSGLYSLSSVVTVPSSNFGTQTYTCNVDHKPSNTKVDKTVGGGGSGGGGSGGGGSQKRDNVLFQAATDEQPAVIKTLEKLVNIETGTGDAEGIAAAGNFLEAELKNLGFTVTRSKSAGLVVGDNIVGKIKGRGGKNLLLMSHMDTVYLKGILAKAPFRVEGDKAYGPGIADDKGGNAVILHTLKLLKEYGVRDYGTITVLFNTDEEKGSFGSRDLIQEEAKLADYVLSFEPTSAGDEKLSLGTSGIAYVQVQITGKASHAGAAPELGVNALVEASDLVLRTMNIDDKAKNLRFQWTIAKAGQVSNIIPASATLNADVRYARNEDFDAAMKTLEERAQQKKLPEADVKVIVTRGRPAFNAGEGGKKLVDKAVAYYKEAGGTLGVEERTGGGTDAAYAALSGKPVIESLGLPGFGYHSDKAEYVDISAIPRRLYMAARLIMDLGAGK
light: QTVLSQSPAILSASPGEKVTMTCRASSSVTYIHWYQQKPGSSPKSWIYATSNLASGVPARFSGSGSGTSYSLTISRVEAEDAATYYCQHWSSKPPTFGGGTKLEIKRTVAAPSVFIFPPSDEQLKSGTASVVCLLNNFYPREAKVQWKVDNALQSGNSQESVTEQDSKDSTYSLSSTLTLSKADYEKHKVYACEVTHQGLSSPVTKSFNRGEC
binding to CEA negative cells (OD 490 nm) [1]: only constant background binding levels throughout; also recorded: do not bind to CEA negative lines
retention of expressed fusion protein on cell surface (OD 490 nm) [2]: had retained the expressed fusion protein; also recorded: very strong OD 490 nm reading
retention of expressed fusion protein on cell surface (OD 490 nm) [3]: some retention of the expressed fusion protein (probably non-specific); also recorded: much weaker reading than the LoVo cells but the signal was higher than background
average enzyme activity in tumour ([4]; day 5): 0.26 U/g
range of enzyme activity in tumour ([4]; day 5): 0.18-0.36 U/g
average enzyme activity in tumour ([4]; day 12): 0.65 U/g
range of enzyme activity in tumour ([4]; day 12): 0.19-1.1 U/g
CPG2 enzyme activity in cell supernatant [5]: CPG2 enzyme activity to be present in the cell supernatant
